Patent US20230181756A1 (Novartis, published 2023)

T1: recombinant hCCR7 (Origene #TP306614) (human, UniProt P32248 25-378, limits assumed)
T1 construct: Bought protein coated on ELISA plates; also called recombinant CCR7
T1 sequence (looked up): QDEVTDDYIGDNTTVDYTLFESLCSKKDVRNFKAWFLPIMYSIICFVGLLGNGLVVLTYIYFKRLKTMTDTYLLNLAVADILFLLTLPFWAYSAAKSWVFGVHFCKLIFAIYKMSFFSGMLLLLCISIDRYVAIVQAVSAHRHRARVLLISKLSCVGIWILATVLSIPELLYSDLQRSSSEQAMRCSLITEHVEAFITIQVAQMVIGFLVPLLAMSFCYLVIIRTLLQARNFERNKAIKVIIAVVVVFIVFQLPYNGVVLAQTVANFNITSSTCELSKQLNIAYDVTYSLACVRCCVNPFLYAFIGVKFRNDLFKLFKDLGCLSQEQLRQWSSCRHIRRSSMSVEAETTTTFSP

T2: human CCR7 (human, UniProt P32248 25-378)
T2 construct: The assay field tells which; also called hCCR7; NIH3T3.hCCR7
T2 sequence: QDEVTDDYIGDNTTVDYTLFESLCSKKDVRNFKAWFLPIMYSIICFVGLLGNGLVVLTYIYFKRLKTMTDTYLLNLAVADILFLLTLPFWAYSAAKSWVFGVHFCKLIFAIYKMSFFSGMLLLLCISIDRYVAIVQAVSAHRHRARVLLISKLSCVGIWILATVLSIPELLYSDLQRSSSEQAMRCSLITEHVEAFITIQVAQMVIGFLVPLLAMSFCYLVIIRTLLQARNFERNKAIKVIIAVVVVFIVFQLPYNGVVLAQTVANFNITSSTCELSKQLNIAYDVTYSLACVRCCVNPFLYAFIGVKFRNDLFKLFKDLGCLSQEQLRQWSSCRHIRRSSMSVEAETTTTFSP

T3: mouse CCR7 (mouse, UniProt P47774 25-378)
T3 construct: also called NIH3T3.mouse CCR7
T3 sequence: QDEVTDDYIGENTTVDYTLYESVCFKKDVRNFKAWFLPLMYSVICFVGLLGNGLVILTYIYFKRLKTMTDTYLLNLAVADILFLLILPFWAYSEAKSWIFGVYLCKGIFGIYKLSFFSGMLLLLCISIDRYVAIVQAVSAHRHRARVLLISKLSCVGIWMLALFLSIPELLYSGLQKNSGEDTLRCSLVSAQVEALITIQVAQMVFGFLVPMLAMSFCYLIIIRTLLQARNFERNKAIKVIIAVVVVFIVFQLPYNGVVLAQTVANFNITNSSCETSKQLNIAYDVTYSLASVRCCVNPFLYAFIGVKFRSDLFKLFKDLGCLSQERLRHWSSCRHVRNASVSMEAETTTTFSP

T4: rat CCR7 (rat, UniProt P47774 25-378 (mouse entry))
T4 construct: also called NIH3T3.rat CCR7
T4 chain: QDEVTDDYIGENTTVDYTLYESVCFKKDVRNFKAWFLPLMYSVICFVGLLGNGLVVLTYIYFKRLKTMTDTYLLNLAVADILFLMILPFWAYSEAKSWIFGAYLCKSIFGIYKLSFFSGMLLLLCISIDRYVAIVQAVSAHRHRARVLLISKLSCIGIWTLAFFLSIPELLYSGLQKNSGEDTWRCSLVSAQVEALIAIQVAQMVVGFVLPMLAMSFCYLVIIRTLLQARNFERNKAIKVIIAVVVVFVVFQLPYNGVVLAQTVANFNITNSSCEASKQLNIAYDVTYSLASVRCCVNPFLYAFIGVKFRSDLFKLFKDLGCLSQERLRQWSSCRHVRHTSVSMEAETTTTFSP


Columns and labels:
[1] = target: T1, recombinant hCCR7 (Origene #TP306614); test: ELISA on plate-coated recombinant hCCR7, antibody titrated, anti-hFc-HRP detection, OD 650 nm
[2] = target: T1, recombinant hCCR7 (Origene #TP306614); test: ELISA, recombinant CCR7 coated at 3.5 ug/ml, antibody titrated
[3] = target: T2, human CCR7; test: FACS titration, human CD4+ T cells (receptor density <2,000)
[4] = target: T2, human CCR7; test: FACS titration, DEL cancer cells (receptor density ~100,000)
[5] = target: T2, human CCR7; test: cell-based or functional assay
[6] = target: T2, human CCR7; test: FACS titration, NIH3T3.hCCR7 cells (receptor density >1,000,000)
[7] = target: T2, human CCR7; test: FACS binding on CCR7 expressing cells, against the unconjugated antibody
[8] = target: T2, human CCR7; test: FACS titration, DEL cells (CCR7 receptor levels >=100,000)
[9] = target: T2, human CCR7; test: cell-based or functional assay; remark: listed apart in the source
[10] = target: T2, human CCR7; test: FACS on DEL cells, antibody titrated to 100 nM together with a constant 1 uM CCL19 (competitor), panel 'ligand 1uM', anti-hFc.PE detection
[11] = target: T2, human CCR7; test: FACS on DEL cells, antibody titrated to 100 nM, panel 'ligand 0uM' (no CCL19), anti-hFc.PE detection
[12] = target: T3, mouse CCR7; test: FACS titration, NIH3T3 cells expressing mouse CCR7
[13] = target: T2, human CCR7; test: FACS titration, NIH3T3 cells expressing human CCR7
[14] = target: T2, human CCR7; test: cell-based or functional assay; remark: listed apart in the source
[15] = target: T4, rat CCR7; test: FACS titration, NIH3T3 cells expressing rat CCR7
[16] = target: T2, human CCR7; test: FACS titration, Jeko-1 cancer cells (CCR7+)

Binder	EC50 (read off the curve) [1]	Kd [2]	EC50 [3]	EC50 [4]	pHrodo (6 h MFI), internalization, CD4+ T cells (receptor numbers 2000) [5]	pHrodo (6 h MFI), internalization, CMLT1 cells (receptor numbers 19583) [5]	pHrodo (6 h MFI), internalization, DEL cells (receptor numbers 110685) [5]	pHrodo (6 h MFI), internalization, JVM3 cells (receptor numbers 8717) [5]	pHrodo (6 h MFI), internalization, Jeko-1 cells (receptor numbers 28852) [5]	pHrodo (6 h MFI), internalization, KE97 cells (receptor numbers 152093) [5]	pHrodo (6 h MFI), internalization, L540 cells (receptor numbers 167549) [5]	pHrodo (6 h MFI), internalization, L1236 cells (receptor numbers 61602) [5]	pHrodo (6 h MFI), internalization, MJ cells (receptor numbers 111121) [5]	pHrodo (6 h MFI), internalization, MOTN1 cells (receptor numbers 84200) [5]	pHrodo (6 h MFI), internalization, Mec2 cells (receptor numbers 50840) [5]	EC50 [6]	further results
Humanized 121G12.CysMab.DAPA (antibody, human IgG1, kappa, Human IgG1 kappa with D265A/P329A and CysMab cysteines; also called 121G12 (Humanized CysMab, DAPA)) heavy: EVQLVESGGGLVKPGGSLRLSCAASGFTFSTYAMSWVRQAPGKGLEWVATISDAGSYSYYPDNVKGRFTISRDNAKNSLYLQMNSLRAEDTAVYYCARRGSRYEEYYVMDYWGQGTTVTVSSASTKGPSVFPLAPSSKSTSGGTAALGCLVKDYFPCPVTVSWNSGALTSGVHTFPAVLQSSGLYSLSSVVTVPSSSLGTQTYICNVNHKPSNTKVDKRVEPKSCDKTHTCPPCPAPELLGGPSVFLFPPKPKDTLMISRTPEVTCVVVAVSHEDPEVKFNWYVDGVEVHNAKTKPREEQYNSTYRVVSVLTVLHQDWLNGKEYKCKVSNKALAAPIEKTISKAKGQPREPQVYTLPPSREEMTKNQVSLTCLVKGFYPCDIAVEWESNGQPENNYKTTPPVLDSDGSFFLYSKLTVDKSRWQQGNVFSCSVMHEALHNHYTQKSLSLSPGK light: EIVLTQSPATLSVSPGERVTLSCRASQSISNNLHWYQQKPGQAPRLLIKYASQSISGIPARFSGSGSGTDFTLTISSVEPEDFGVYFCQQSSSWLTFGQGTKLEIKRTVAAPSVFIFPPSDEQLKSGTASVVCLLNNFYPREAKVQWKVDNALQSGNSQESVTEQDSKDSTYSLSSTLTLSKADYEKHKVYACEVTHQGLSSPVTKSFNRGEC	~0.6 nM	0.677 nM	~30 nM	1.78 nM	278 MFI	301 MFI	1910 MFI	148 MFI	450 MFI	1570 MFI	6840 MFI	1240 MFI	1650 MFI	1030 MFI	1340 MFI	2.5 nM	–
121G12.DAPA.sSPDB.DM4 (antibody, human IgG1, kappa, sulfo-SPDB-DM4 on endogenous lysines (sites not defined, may also be on the light chain); DAR 3.6 in Example 4B, DAR 3.9 in Tables 20 and 21, also called 121G12.sSPDB.DM4) heavy: not shown light: EIVLTQSPATLSVSPGERVTLSCRASQSISNNLHWYQQKPGQAPRLLIKYASQSISGIPARFSGSGSGTDFTLTISSVEPEDFGVYFCQQSSSWLTFGQGTKLEIKRTVAAPSVFIFPPSDEQLKSGTASVVCLLNNFYPREAKVQWKVDNALQSGNSQESVTEQDSKDSTYSLSSTLTLSKADYEKHKVYACEVTHQGLSSPVTKSFNRGEC	–	–	–	–	–	–	–	–	–	–	–	–	–	–	–	–	difference of geometric mean fluorescence intensity from the unconjugated antibody [7]: ≤ 20%; EC50 [8]: 8.42 nM; ADC activity in cell viability assay; IC50 (nM); DEL cells [9]: 2.98 nM; ADC activity in cell viability assay; IC50 (nM); KE97 cells [9]: 3.18 nM; ADC activity in cell viability assay; IC50 (nM); L540 cells [9]: 3.9 nM
Humanized 506E15.CysMab.DAPA (antibody, human IgG1, kappa, V domains shown, Human IgG1 kappa with D265A/P329A and CysMab cysteines; also called 506E15 (Humanized CysMab DAPA)) VH: EVQLVESGGGLVKPGGSLRLSCAASGFTFSSYAMSWIRQAPGKGLEWVATISSGGSFTYYPDSVKGRFTISRDNAKNSLYLQMNSLRAEDTAVYYCARRASTVVGTDFDVWGQGTTVTVSS VL: DIQMTQSPSSLSASVGDRVTLTCRASQDIGSSLNWLQQKPGKAIKRLIYATSSLDSGVPSRFSGSRSGTDYTLTISSLQPEDFVVYYCLQYASSPPTFGGGTKLEIKR	–	5.73 nM	~10 nM	3.09 nM	429 MFI	465 MFI	3060 MFI	238 MFI	908 MFI	2720 MFI	16100 MFI	3130 MFI	3870 MFI	2900 MFI	3090 MFI	1.8 nM	–
Humanized 674J13.CysMab.DAPA (antibody, human IgG1, kappa, V domains shown, Human IgG1 kappa with D265A/P329A and CysMab cysteines; also called 674J13 (Humanized, CysMab DAPA)) VH: DVQLQESGPGLVKPSQTLSLTCTVSGYSITSGYSWHWIRQHPGKGLEWMAHIHSSGSTNYNPSLKSRITISRDTSKNQFSLKLSSVTAADTAVYYCARGGVQAFAYWGQGTLVTVSS VL: EIVLTQSPATLSASPGERVTMSCSASSSVIYMHWYQQKPGQAPRRWIYDTSKLASGVPARFSGSGSGTDYTLTISSMEPEDAAVYYCQQWSSNPLTFGQGTKLEIKR	~0.07 nM	0.006 nM	~2 nM	0.47 nM	402 MFI	561 MFI	3780 MFI	146 MFI	1390 MFI	4420 MFI	11800 MFI	5820 MFI	3260 MFI	2540 MFI	3000 MFI	0.64 nM	EC50 (read off the curve) [10]: ~2 nM; EC50 (read off the curve) [11]: ~2 nM
684E12 non-humanized CysMab (antibody, human IgG1, kappa, V domains shown, Chimeric human IgG1 kappa with CysMab cysteines and wild type Fc; also called Parental 684E12 hIgG1 CysMab; Non-humanized CysMab antibody 684E12) VH: EVHLVESGGGLVKPGGSLKLSCAASGFTFSNFAMSWVRQTPEKRLEWVATISTGGTYTYYPDSVKGRFTISRDNAKKTLYLQMSSLRSEDTAMYYCTRRGYDGVDKWGQGTTLTVSS VL: not shown	–	–	–	–	–	–	–	–	–	–	–	–	–	–	–	–	binding result [12]: no binding; EC50 [13]: > 30 nM; ADCC activity; IC50 (nM); reporter assay, JVM2 targets and Jurkat-V158 effectors [14]: 2.63 nM; binding result [15]: no binding; EC50 [16]: 12 nM
